# Results as given in PMC11785930.
# Molecular target: STAT3 (protein used in the ELISA) (UniProt P42227)
# Experiment: ELISA; documented protocol (ref. 44); which protein was coated and the conditions are not told
substance,measurement,value
Becn1 (protein used in the ELISA) (from UniProt O88597 1-448) (natural protein),Kd,120 nM
